Results on 24 molecules are retold here after US20160115200A1 (published 2016).

One may read the IC50 as the concentration that gives 50% inhibition. A high value points to weaker potency in that assay.

Square brackets hold non-standard residues; d marks the D form. Ends that are not written are not given here.

Assay [1] has as its target T1, His-JNK3 (ref 14-501, Upstate) (UniProt P53779 1-422). The assay is described as follows: kinase inhibition.
In assay [2] the target is T2, His-JNK1 (ref 14-327, Upstate) (UniProt P45983 1-384). The assay is described as follows: kinase inhibition.
T2 sequence (P45983 other isoform, or with tags, fused parts or gaps): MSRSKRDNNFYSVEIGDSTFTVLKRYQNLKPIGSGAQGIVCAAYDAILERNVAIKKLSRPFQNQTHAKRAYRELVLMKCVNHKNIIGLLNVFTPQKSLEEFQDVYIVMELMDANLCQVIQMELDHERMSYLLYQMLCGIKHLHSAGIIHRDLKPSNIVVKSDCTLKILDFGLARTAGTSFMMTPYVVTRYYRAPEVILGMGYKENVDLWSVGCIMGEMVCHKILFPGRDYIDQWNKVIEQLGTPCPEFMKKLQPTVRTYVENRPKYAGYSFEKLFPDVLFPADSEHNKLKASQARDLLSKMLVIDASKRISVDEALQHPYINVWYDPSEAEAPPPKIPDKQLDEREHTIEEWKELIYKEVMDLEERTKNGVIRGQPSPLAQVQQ
The target in assay [3] is T1, His-JNK3 (ref 14-501, Upstate). The assay is described as follows: JNK inhibition assay.
The target of assay [4] is T2, His-JNK1 (ref 14-327, Upstate). The assay is described as follows: JNK inhibition assay.

T1 sequence (P53779 other isoform, or with tags, fused parts or gaps): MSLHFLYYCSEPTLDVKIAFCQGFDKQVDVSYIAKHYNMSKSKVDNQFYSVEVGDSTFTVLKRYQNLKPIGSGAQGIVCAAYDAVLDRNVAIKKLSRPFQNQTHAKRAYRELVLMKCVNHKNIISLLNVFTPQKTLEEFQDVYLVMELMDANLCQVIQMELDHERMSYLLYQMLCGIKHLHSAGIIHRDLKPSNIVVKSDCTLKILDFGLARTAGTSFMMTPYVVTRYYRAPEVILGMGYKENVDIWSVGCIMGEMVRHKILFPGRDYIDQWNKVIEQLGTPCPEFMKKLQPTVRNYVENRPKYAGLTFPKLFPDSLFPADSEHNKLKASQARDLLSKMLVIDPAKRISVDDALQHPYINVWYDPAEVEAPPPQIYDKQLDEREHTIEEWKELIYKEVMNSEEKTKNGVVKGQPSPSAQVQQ

B1: SEQ ID NO: 186 (peptide)
chain: [dR]KKR[dR]QRR[dR]RP[dK]RP[dQ]TLNL[dF]
With B1, the IC50 was determined as 44.2 nM in assay [1] and 1020 nM in assay [2].

B2: SEQ ID NO: 182 (peptide)
chain: [dR]KKR[dR]QRR[dR]RP[dA]TLNL[dF]
On to B2, for which the IC50 in assay [1] stood at 59.4 nM; in assay [2] it was 1680 nM.

B3: SEQ ID NO: 177 (peptide)
chain: [dR]KKR[dR]QRR[dR]RP[dK]RPTDLNL[dF]
Consider B3, for which the IC50 is 45.4 nM in assay [1] and 355 nM in assay [2].

B4: SEQ ID NO: 6 (peptide)
chain: RPKRPTTL[dR]LF
With B4, the IC50 came to 120 nM in assay [3] and 90.5 nM in assay [4].

B5: SEQ ID NO: 189 (peptide)
chain: [dR]KKR[dR]QRR[dR]GKRKAL[dR]L[dF]
On to B5, for which the values for the IC50 in assay [1] and in assay [2] were 128 nM and 22300 nM, respectively.

B6: SEQ ID NO: 195 (peptide)
chain: GRKKRRQRRRPTTLNLFPQVPRSQD
Turning to B6, the figures for the IC50 in assay [1] and in assay [2] were 4.92 nM and 10.8 nM, respectively.

B7: SEQ ID NO: 188 (peptide)
chain: [dR]KKR[dR]QRR[dR]GKRKALKL[dF]
Regarding B7, the values for the IC50 in assay [1] and in assay [2] were 36.1 nM and 1420 nM, respectively.

B8: SEQ ID NO: 183 (peptide)
chain: [dR]KKR[dR]QR[dR]RP[dA]TLNL[dF]
In the case of B8, the values for the IC50 in assay [1] and in assay [2] were 199 nM and 2590 nM, respectively.

B9: SEQ ID NO: 184 (peptide)
chain: [dR]KKR[dR]QR[dR]KRP[dA]TLNL[dF]
For the molecule B9, the IC50 came out at 129 nM in assay [1] and 2430 nM in assay [2].

B10: SEQ ID NO: 185 (peptide)
chain: [dR]KKR[dR]QRR[dR]RP[dK]RP[dS]TLNL[dF]
On to B10, for which the figures for the IC50 in assay [1] and in assay [2] were 35.5 nM and 766 nM, respectively.

B11: SEQ ID NO: 174 (peptide)
chain: [dR]KKR[dR]QRR[dR]RPTTLNL[dF]
For the molecule B11, the IC50 was found to be 63.1 nM in assay [1] and 334 nM in assay [2].

B12: SEQ ID NO: 178 (peptide)
chain: [dR]KKR[dR]QRR[dR]RPTTL[dR]L[dW]
As for B12, the IC50 in assay [1] is 30.4 nM; in assay [2], 329 nM.

B13: SEQ ID NO: 190 (peptide)
chain: [dR]KKR[dR]QRR[dR]RKAL[dR]L[dF]
With B13, the IC50 stood at 159 nM in assay [1] and 8970 nM in assay [2].

B14: SEQ ID NO: 46 (peptide)
chain: RKKRRQRRR
In assay [1], B14 returned an IC50 of 8130 nM.

B15: SEQ ID NO: 181 (peptide)
chain: [dR]KKR[dR]QR[dR]RPTDL[dR]L[dW]
In the case of B15, the IC50 in assay [1] came to 47.6 nM; in assay [2], 294 nM.

B16: SEQ ID NO: 200 (peptide)
chain: [dR]KKR[dR]QRR[dR]RP[dK]AA[dA]AANA[dF]
As for B16, the IC50 in assay [1] was determined as 3820 nM.

B17: SEQ ID NO: 175 (peptide)
chain: [dR]KKR[dR]QR[dR]RPTTLNL[dF]
Take B17: the IC50 in assay [1] was determined as 60.6 nM; in assay [2], 185 nM.

B18: SEQ ID NO: 173 (peptide)
chain: [dR]KKR[dR]QRR[dR]RP[dK]RPTTL[dR]L[dF]
Consider B18, for which the IC50 in assay [1] was 16.8 nM; in assay [2] it was 88.4 nM.

B19: SEQ ID NO: 187 (peptide)
chain: [dR]KKR[dR]QRR[dR]RP[dK]RP[dK]TLNL[dF]
In the case of B19, the IC50 in assay [1] was 25.4 nM; in assay [2] it was 594 nM.

B20: SEQ ID NO: 194 (peptide)
chain: GRKKRRQRRRPPKRPTTLNLFPQVPRSQD
As for B20, the figures for the IC50 in assay [1] and in assay [2] were 2.59 nM and 14 nM, respectively.

B21: SEQ ID NO: 180 (peptide)
chain: [dR]KKR[dR]QRR[dR]RPTDL[dR]L[dW]
On to B21, for which the IC50 is 47 nM in assay [1] and 265 nM in assay [2].

B22: SEQ ID NO: 176 (peptide)
chain: [dR]KKR[dR]QRR[dR]RP[dK]RPTTLNL[dW]
For the molecule B22, the IC50 in assay [1] amounted to 22.4 nM; in assay [2] it was 131 nM.

B23: SEQ ID NO: 179 (peptide)
chain: [dR]KKR[dR]QR[dR]RPTTL[dR]L[dW]
In the case of B23, the IC50 was determined as 45.7 nM in assay [1] and 249 nM in assay [2].

B24: SEQ ID NO: 172 (peptide)
chain: RKKRRQRRRRPKRPATLNLF
As to B24, the results for the IC50 in assay [1] and in assay [2] were 102 nM and 722 nM, respectively.
